This test has as its target T1, human FcRH5 (FcRH5c/IRTA2c, PRO52387), recombinant protein ('Hu antigen') (human) (UniProt Q96RD9).
T1 sequence: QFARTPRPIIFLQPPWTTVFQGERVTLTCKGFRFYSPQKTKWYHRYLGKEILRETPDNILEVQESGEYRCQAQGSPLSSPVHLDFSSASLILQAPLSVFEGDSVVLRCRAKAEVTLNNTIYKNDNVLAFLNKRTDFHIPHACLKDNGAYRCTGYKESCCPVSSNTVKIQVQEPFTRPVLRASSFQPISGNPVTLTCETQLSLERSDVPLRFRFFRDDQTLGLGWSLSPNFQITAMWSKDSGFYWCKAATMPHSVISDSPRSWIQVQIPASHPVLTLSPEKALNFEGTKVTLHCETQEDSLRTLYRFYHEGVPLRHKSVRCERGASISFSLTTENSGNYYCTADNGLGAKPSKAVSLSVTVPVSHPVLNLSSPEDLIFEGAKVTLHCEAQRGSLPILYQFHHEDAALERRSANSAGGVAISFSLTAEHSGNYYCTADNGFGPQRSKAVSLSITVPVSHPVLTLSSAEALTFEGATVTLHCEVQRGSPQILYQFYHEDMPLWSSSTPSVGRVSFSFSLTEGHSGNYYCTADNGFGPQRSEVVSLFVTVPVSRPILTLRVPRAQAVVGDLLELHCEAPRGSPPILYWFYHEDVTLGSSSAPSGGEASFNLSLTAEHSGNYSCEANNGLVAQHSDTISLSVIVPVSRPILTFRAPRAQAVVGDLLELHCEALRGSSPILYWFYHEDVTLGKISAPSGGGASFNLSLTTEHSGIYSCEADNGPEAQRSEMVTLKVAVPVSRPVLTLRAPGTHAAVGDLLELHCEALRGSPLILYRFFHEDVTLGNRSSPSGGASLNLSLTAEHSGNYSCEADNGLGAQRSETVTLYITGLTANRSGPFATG
Description: SPR (Biacore 2000), IgG captured on anti-murine IgG chip, serial dilutions of FcRH injected, 25 C, 1:1 Langmuir fit. (Surface plasmon resonance follows binding to a sensor surface in real time, without labels.)

B1: murine anti-FcRH5-13G9 monoclonal antibody (antibody, from another filing, V domains shown)
VH: EVQLVQSGPELKKPGETVKISCKASGYTFTNYGMNWVKQAPGKGLKWMGWVNTYTGEPTYTDDFKGRFAFSVETSASTVFLQINNLKNEDTATYFCARRSIPYYYAMDYWGQGTSLT
VL: DIVMTQSQKIMSTSVGDRVNVTCKASQNVGSNVAWYHQKPGQSPKALIYSASYRYSGVPDRFTGSGSGTDFTLTISNVQSEDLAEYFCQQYKTWTFGGGTKLEIKR
As usually defined, the Kd is a measure of binding affinity in units of concentration. As to B1, the Kd turned out to be 19 nM.

These data come from patent publication US20100260748A1.
